Data taken from patent US20140287419A1, “Compositions Having Dicamba Decarboxylase Activity and Methods of Use” (priority 2013, published 2014).

Assay: 14C assay with IPTG-induced recombinant E. coli cells (14CO2 capture from [14C]-carboxyl-labeled dicamba)
Conditions: E. coli cell assay, 108 sequences tested

Row | Molecule | decarboxylation activity of dicamba
1 | SEQ ID NO:4: o-pyrocatechuate decarboxylase, Lactobacillus buchneri NRRL B-30929 (protein, listed as Lactobacillus buchneri) MAKVITLEEHFSSQKLGQKMAEVLPKRPIGNVSPKMQDYMQRSLPPEAELEDVTGSRIQWMDQHQISMQILSYGNQNPQNSDPKFAVELTKLANDELAKAVAKAPDRFRAFASLPVSHPTDAAAELKRGVEELGFKGAMLVRPTSQAHPFFDDPFYLPIFEAAANLNVPVYLHPSFPDSQIIDYYYSNGPWDDKVSGILGTAGYGWHTDVGIQTVRLLLSGVFEKYPNLKLISGHWGEFASFALERMDQVMYPETNLSEPISKIYRDHVYVTPSGILTEPQLKFVKDEVGIEHLLYSIDYPYIKPENSGSFIESSPLTDEEKELFAHGNAEKLLQL | showed decarboxylation activity of dicamba
2 | SEQ ID NO:88: o-pyrocatechuate decarboxylase, Starkeya novella DSM 506 (protein, listed as Starkeya novella) MARKIALEEHFTTPELAGKYVARPTQSDALFADIERRLADFDELRLEMMDRAEIDLMVLSVTTPGVQGVRDTGEAIRLARGANDFLAREVQKRPSRYAGFAHLAMQDAEAAATELERAVRELGFRGALINGQTNGHYLDEDQYAPFWERVQELDVPVYLHPGNMADSPAMFAHRPELGGPIWAWTAETAAHALRLVFGGTFTRFPGAKVILGHMGETLPFLLWRLDSRREFDLGEKLAPDALPSAIIKRNIAVTTSGVCDPAPLVAALQALSDDNVMFSVDYPYEDPQLASKFIETAPIGEETRAKVCHGNAERLLGL | showed decarboxylation activity of dicamba
3 | SEQ ID NO:89: amidohydrolase, Erwinia billingiae Eb661 (protein, listed as Erwinia billingiae) MATNRRDFLKNATAVMAGSTVFAGSSHFASAAAVEPAAVQPPRRIIALEEHFMLPEFVGYLHETQQNLRNGLVDKVVTPLSDFGKGRLEIMDKNGVDFAVLSLSGPGVQAEPDRVKAVRLARYANDKLATEMQKNPRRYGGFAHLAMQDPLAAANELERCVKQLHMQGGMINGETDGLYLDDRRYDVFWERVEALNVPIYIHPGNPPDYPHMFAGHPEMWGPVWSWAVETCSHALRLIFSGTFDRYPGARVILGHMGETLPIQLWRLDSRYQIANQTFAIKHPPSWYAKKNITITTSGVCNDAALRCALDSMGSENVMFSIDYPFESTEIAVNWLKTANITEQERNAVAWGNATSILRLGA | showed decarboxylation activity of dicamba
4 | SEQ ID NO:5: possible o-pyrocatechuate decarboxylase, Staphylococcus aureus subsp. aureus MN8 (protein, listed as Staphylococcus aureus) MAQNNMEANQMKSITFEEHYVIEDIQKETMNAISADPKGVPMKVMLEGLEKKTGFTNADELSHHDERIQFMNNQDVQIQVLSYGNGSPSNLVGQKAIELCQKANDQLANYIAQYPNRFVGFATLPINEPEAAAREFERCINDLGFKGALIMGRAQDGFLDQDKYDIIFKTAENLGVPIYLHPAPVNSDIYQSYYKGNYPEVTAATFACFGYGWHIDVGIHAIHLVLSGIFDRYPKLNMIIGHWGEFIPFFLERMDEALFAEHLNHPVSYYFKNNFYITPSGMLTKPQFDLVKKEAGIDRILYAADYPYIEPEKLGVFLDELGLTDEEKEKISYTNGAKLLGLSSNN | showed decarboxylation activity of dicamba
5 | SEQ ID NO:92: amidohydrolase 2, Chitinophaga pinensis DSM 2588 (protein, listed as Chitinophaga pinensis) MARIVTLEEHVSFPEMTALLPEEILKNRKQSGAALQMQEKLADITGERLTSMKAAGISMQVLSVENTDVYLLPDSLAPAFAAKYNDLLADKISSHSDAFAAFAMLPMTVPEAAADELERAVKTHGFCGAMIKGLINGVFLDAPKFAPVFACAEKLGVPLYIHPGIPPKEVIDAYYSNVGDTKGPNEAIACYGWGWHSETAIHILRLLAAGIFDKYPQLNIIIGHMGEMLPMMWERSNRVFQPGNNGKNQRTLIETFRKQLYITTSGIFTQPPLQIAIDTIGIDNILFSIDYPFSSNQMGIDFLTKAALPAEQLAKMAHGNADRILKF | showed decarboxylation activity of dicamba
